The values below come from US20240325562A1 (LINXIS B V, published 2024).

Residue numbers refer to the chain shown, from its start.

To fix the notation:
B1: 13E5 (VHH)
VHH: EVQLVESGGGLVQAGGSLRLSCAASGLTFSRYTMSWYRQAPGKEREVVAAISSGDSTYHEDSVKGRFIISRDNAKNTVYLQMNSLKTEDTAVYYCRANGPGTYWGQGTQVTVSS
notes: On phage in the phage ELISA; tail applies to the purified protein
B2: 13D11 (VHH)
VHH: EVQLVESGGGLVQAGGSLRLSCAASGSIFSINYMAWYRQAPGKEREVVASMSWRRDSTYLADSVQGRFTISRNNAKNTMYLQMNSLKPEDTALYYCKANDYWGQGTQVTVSS
notes: as for B1
B3: 13A3 (VHH)
VHH: B2 VHH with S30R, I31L, W53R, R55S, S63A, R72M, K76G
notes: as for B1
B4: 13F4 (VHH)
VHH: B2 VHH with A23V, A40T, W53R, R55S, S63A, K76G
notes: as for B1
B5: 13A8 (VHH)
VHH: EVQLVESGGGLVPAGGSLRLSCAASGRTFSNYAMGWFRQAPGKERKFVATISWSGGVTYYADSVKGRFTISRDNAKNTVYLLMNSLKPEDTAVYYCAAKRDSSSYDHRRYDYWGQGTQVTVSS
notes: On phage in the phage ELISA; purified from E. coli in the other assays
B6: 13B7 (VHH)
VHH: EVQLVESGGGLVQAGGSLRLSCAASRSISPMGWYRQAPGKQRELVAIMPSSGTPIYADSVQGRFTISRDNAKNTVYLQMNSLKPEDTAVYYCNVGGGYWGQGTQVTVSS
notes: as for B1
B7: 13G12 (VHH)
VHH: EVQLVESGGGLVQAGGSLRLSCAASGRAFSISSMSWFRQAPGKERVVVASIAWSGDSTYYADSVQGRFTISKDNAKNTLSLQMNSLKPEDTAVYYCSAYTQVSVNNRYWGQGTQVTVSS
notes: the first entry is used; On phage in the phage ELISA
B8: 13A2 (VHH)
VHH: EVQLVESGGGLVQAGGSLRLSCAASGIIFSANTVGWYRQVPGKERDVVASITSGDSTYYGDSVRDRFTISRDNAKNTVYLQMNSLKPDDTAIYYCRARTTDGSYWGQGTQVTVSS
notes: as for B1
B9: 13B12 (VHH)
VHH: B8 VHH with S30G, G54V, D65G, D88E
notes: as for B1
B10: SP10P (VHH)
VHH: EVQLVESGGGLVQAGGSLRLSCAASGRTFNGYAMGWFRQAPGKERDFVAAITWSYGYTHYAESVKGRFSISRDSANNMVYLEMNSLKPEDTAVYYCAADPKASRFRTLRRYDYWGQGTQVTVSS
notes: From libraries 1 and 2 (raised against hPDGFRB)
B11: SP08P (VHH)
VHH: EVQLVESGGGLVQAGGSLRLSCAASGRTFNGYAMAWFRQAPGKERDFVASITWSYGYTYYADSAQGRFTISRDSAKNTVYLEMNSLKPEDTAVYYCAADPKASRFRILRQYAHWGQGTQVTVSS
notes: as for B10
B12: SP05P (VHH)
VHH: EVQLVESGGGLVQAGGSLRLSCAASGRTSFSGYAMAWFRQAPGKERDFVASITWSYGYTYYTDSAQGRFTISRDSAKNTVYLEMNSLKPEDTAVYYCAADPKASRFRILREYAYWGQGTQVTVSS
notes: as for B10
B13: SP01P (VHH)
VHH: EVQLVESGGGLAQAGGSLRLSCVASGNIDSANGMAWYRQAPGKQRELVAHITSGTSYYVASVEGRFTISRANAKDTWYLQMNSLKPEDTGVYYCFPIGLSAHWSQGTQVTVSS
notes: as for B10
B14: SP02P (VHH)
VHH: EVQLVESGGGLVQAGGSLRLSCAASESISSIEQMGWFRQAPGKQRALVAINTYGGRTVYTNSVEGRFTMSRDSAKNMVYLQMTSLEPEDTAVYYCYAQTTAWRGGVWGQGTQVTVSS
notes: as for B10

The target of one test is T1, recombinant human extracellular domain of IGF2R (human, UniProt P11717 41-2304).
T1 construct: extracellular domain; Recombinant, immobilized on plates; also called hIGF2R-ECD; human IGF2R ectodomain (ECD)
In words: phage ELISA on hIGF2R-ECD. As to the method: After the second selection round, 94 phage clones were randomly picked and assessed for binding to hIGF2R-ECD in a phage ELISA. Clones showing affinity were analyzed by restriction enzyme analysis using Hinfl and then categorized according to their restriction pattern. From each category, multiple clones were selected, and the amino acid sequences of these binders were identified (Table 2).
A general note: An ELISA detects its analyte on a solid surface through an enzyme-linked reagent.
For the molecule B1, the binding result was “binds”. Consider B2, for which the binding result is listed as “binds”.

In the case of B3, the binding result is listed as “binds”.

In the case of B4, the binding result is given as “binds”. Turning to B5, the binding result is “binds”. On to B6, for which the binding result is given as “binds”. On to B7, for which the binding result is listed as “binds”. On to B8, for which the binding result is reported as “binds”.

Take B9: the binding result is “binds”.

A further test deals with T2, recombinant hPDGFRB ectodomain (human, UniProt P09619 33-532).
T2 construct: extracellular domain; also called hPDGFRB-ECD; human PDGFRB ECD
T2 sequence (P09619 33-532): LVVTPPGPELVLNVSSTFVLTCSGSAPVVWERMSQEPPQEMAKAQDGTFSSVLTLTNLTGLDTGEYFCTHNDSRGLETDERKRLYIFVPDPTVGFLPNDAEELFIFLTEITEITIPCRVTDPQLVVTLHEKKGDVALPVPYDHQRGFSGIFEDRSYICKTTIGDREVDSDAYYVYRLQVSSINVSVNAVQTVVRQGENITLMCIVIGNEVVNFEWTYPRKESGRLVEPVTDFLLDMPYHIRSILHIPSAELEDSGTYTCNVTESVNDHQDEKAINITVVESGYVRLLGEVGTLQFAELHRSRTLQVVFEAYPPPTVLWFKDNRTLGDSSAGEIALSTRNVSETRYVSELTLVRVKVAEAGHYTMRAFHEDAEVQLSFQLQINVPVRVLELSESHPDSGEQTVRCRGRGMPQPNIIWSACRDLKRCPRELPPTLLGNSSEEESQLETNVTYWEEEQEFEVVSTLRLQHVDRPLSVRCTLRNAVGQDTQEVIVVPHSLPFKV
In words: phage ELISA and binding assay on hPDGFRB-ECD; values only in FIG. 5.
With B10, the binding result is “binds”. As for B11, the binding result was “binds”. As to B12, the binding result was “binds”. In the case of B13, the binding result is “binds”. As for B14, the binding result is “binds”.
